Test results taken from paper doi:10.1101/2025.02.17.637997, “Phosphorylation-State Modulated Binding of HSP70: Structural Insights and Compensatory Protein Engineering” (bioRxiv, 2025).
Where “and” joins values, the source holds several entries; their conditions need not be identical. Equal values may be shown once. Entries after “also recorded” stand apart in the source; their conditions may differ. Values belong to the molecule of their own block, whether it stands above or below them. Ends that are not written are not given here. * marks the point of attachment. FITC = O=C1OC2(c3ccc(O)cc3Oc3cc(O)ccc32)c2ccc(NC(=S)*)cc21; Ahx = NCCCCCC(=O)O

Legend:
CHIP-TPR (21–154) [1] = molecular target: T1, CHIP-TPR (21–154) (UniProt Q9UNE7 21-154); assay: biolayer interferometry, peptide on sensor; conditions: reference: biotin-EEVD peptide; sites T636
T1 construct: also called extended TPR domain of CHIP
T1 sequence (looked up): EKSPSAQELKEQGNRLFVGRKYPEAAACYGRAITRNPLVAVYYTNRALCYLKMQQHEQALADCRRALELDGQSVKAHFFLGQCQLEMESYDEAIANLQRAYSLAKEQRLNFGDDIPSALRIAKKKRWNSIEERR

CHIP = CHIP (UniProt Q9UNE7); assay: fluorescence polarization titration; conditions: reference: unphosphorylated EEVD peptide; sites T636
[2] = molecular target: recombinant full-length CHIP-K30A (UniProt Q9UNE7 1-303, K30A); assay: FP
[3] = molecular target: T2, CHIP domain fragment: TPR with the coiled-coil domain; assay: FP
T2 chain: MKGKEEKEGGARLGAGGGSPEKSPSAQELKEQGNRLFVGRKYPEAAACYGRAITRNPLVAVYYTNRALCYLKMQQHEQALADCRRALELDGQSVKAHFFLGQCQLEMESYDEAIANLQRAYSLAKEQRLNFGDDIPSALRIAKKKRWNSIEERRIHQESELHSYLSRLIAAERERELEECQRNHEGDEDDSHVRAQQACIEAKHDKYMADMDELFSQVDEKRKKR

[4] = molecular target: T3, recombinant full-length CHIP-WT (UniProt Q9UNE7 1-303); assay: FP
T3 chain: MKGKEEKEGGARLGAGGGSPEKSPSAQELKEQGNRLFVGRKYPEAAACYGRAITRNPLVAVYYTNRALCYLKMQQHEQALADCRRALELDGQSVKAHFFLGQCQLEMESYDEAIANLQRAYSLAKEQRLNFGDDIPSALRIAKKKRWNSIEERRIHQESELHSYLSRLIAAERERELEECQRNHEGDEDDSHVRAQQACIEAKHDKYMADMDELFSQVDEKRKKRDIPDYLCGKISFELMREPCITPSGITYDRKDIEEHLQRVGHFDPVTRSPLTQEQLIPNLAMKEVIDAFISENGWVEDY

[5] = molecular target: recombinant full-length CHIP-G132N (UniProt Q9UNE7 1-303, G132N); assay: FP
[6] = molecular target: T4, recombinant full-length CHIP-WT (UniProt Q9UNE7 1-303); assay: fluorescence polarisation; 20 nM N-terminally FITC-labelled peptide, recombinant CHIP constructs at increasing concentrations, 30 minutes at room temperature; one site/total binding fit with Bmax constrained to 100; conditions: both partners purified
T4 sequence (looked up): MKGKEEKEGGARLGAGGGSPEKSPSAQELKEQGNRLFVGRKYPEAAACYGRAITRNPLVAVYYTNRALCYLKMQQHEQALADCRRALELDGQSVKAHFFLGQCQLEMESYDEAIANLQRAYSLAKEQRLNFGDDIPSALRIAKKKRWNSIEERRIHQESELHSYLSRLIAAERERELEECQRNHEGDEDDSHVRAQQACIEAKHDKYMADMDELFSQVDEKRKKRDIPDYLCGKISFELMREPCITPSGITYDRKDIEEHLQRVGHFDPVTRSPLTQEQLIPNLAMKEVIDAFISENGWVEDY

[7] = molecular target: T5, recombinant full-length CHIP-G132N (UniProt Q9UNE7 1-303, G132N); assay: as above; conditions: both partners purified
T5 construct: CHIP, full-length recombinant protein with G132N
T5 sequence (looked up): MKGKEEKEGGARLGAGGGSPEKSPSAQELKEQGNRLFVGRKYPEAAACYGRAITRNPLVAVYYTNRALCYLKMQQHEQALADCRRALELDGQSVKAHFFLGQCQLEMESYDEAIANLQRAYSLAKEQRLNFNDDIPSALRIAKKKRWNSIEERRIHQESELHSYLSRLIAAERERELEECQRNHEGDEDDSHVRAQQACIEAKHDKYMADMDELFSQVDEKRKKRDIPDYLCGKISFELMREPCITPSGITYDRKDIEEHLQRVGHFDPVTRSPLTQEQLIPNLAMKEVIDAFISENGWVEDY

CHIP-TPR (21–154) [8] = molecular target: T1, CHIP-TPR (21–154); assay: as above; conditions: both partners purified
LgBiT-HSP70 T636A/D [9] = assay: NanoBiT live-cell interaction, HEK-293, CHIP variants with LgBiT-HSP70; assay type: cell-based; conditions: compared with CHIP-WT, Fig. 1E
Procedure: (§1) HEK293 and COS-7 cells were acquired from the UNC Lineberger Comprehensive Cancer Center Tissue Culture Facility. Cultures were maintained in Dulbecco’s Modified Eagle Medium with 10% fetal bovine serum at 37 °C and 5% CO2. Using the manufacturers’ instructions, X-tremeGENE 9 was used to transfect cells with plasmid DNA except for NanoBiT constructs, in which case we used Lipofectamine 3000 (Thermo Fisher Scientific). Where indicated, twenty-four hours post-transfection, cells were treated with 20 μM MG-132 (Selleck Chemicals) for 6 h or 100 μM cycloheximide (Sigma-Aldrich) for the stated duration.
(§2) NanoBiT Protein: Protein Interaction System (Promega) was used to measure protein-protein interaction data following the manufacturer’s instructions. As previously described, LgBiT-HSP70 and SmBiT-CHIP construct interactions were used as positive controls ([22]). Twenty-four hours post-transfection, the cells were collected, replated in 96-well clear bottom white-sided tissue culture plates, and maintained at 37 °C and 5% CO2 for 45 min. Nano-Glo Live Cell Reagent (Promega) was added, and luminescence was measured using a CLARIOstar microplate reader over 20 minutes. The total area under the maximum luminescence curve was quantified and used to compare changes in HSP70-CHIP interactions relative to the WT-WT conditions.

LgBiT-HSP70 T636A/D [10] = assay: NanoBiT live-cell interaction, COS-7, CHIP variants with LgBiT-HSP70; assay type: cell-based; conditions: Fig. 1F
Procedure: as §1, §2

HSP70 = assay: Co-immunoprecipitation of CHIP variants with HSP70, COS-7; assay type: cell-based; conditions: Co-IP of MYC-CHIP, Fig. 1I
Procedure: Samples were collected in a lysis buffer composed of 50 mM Tris-HCl (pH 7.4), 150 mM NaCl, 2 mM EDTA, and 1% Triton X-100, supplemented with 1X Halt protease and phosphatase inhibitor (Thermo Scientific). The samples were then sonicated and combined with Laemmli sample buffer (Bio-Rad). The lysates were resolved on 4–15% TGX Stain-Free gels (Bio-Rad) and transferred to PVDF membranes (Bio-Rad). The membranes were blocked in 5% milk and incubated with primary antibodies (Table S3) overnight at 4°C. Following this, HRP-conjugated secondary antibodies (Cell Signaling Technology) were applied. Detection was performed using Lumigen ECL Ultra (Lumigen, tma-100), and the blots were imaged with the ChemiDoc Imaging System (BioRad).
Ezview™ Red Anti-c-Myc Affinity Gel Beads (Sigma-Aldrich) were used for co-immunoprecipitation of myc-tagged proteins. Proteins were eluted via boiling before western blot analysis.

CHIP-G132N = molecular target: T6, CHIP-G132N (Homo sapiens, UniProt Q9UNE7, G132N); assay: Biolayer interferometry, CHIP-G132N TPR; assay type: binding; conditions: BLI; CHIP-G132N TPR; Fig. 2E
T6 construct: Recombinant CHIP-TPR constructs were recombinantly expressed using the pHis//2 CHIP-TPR (21–154) plasmid; His; made in house
T6 sequence (Q9UNE7 21-154 G132N): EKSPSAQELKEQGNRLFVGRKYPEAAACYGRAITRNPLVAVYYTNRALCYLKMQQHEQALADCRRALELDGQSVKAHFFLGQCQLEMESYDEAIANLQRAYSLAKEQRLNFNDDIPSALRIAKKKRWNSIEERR
Procedure: Bio-layer interferometry measured peptide binding using a BLItz instrument (FortéBio, Sartorius) with streptavidin (SA) sensors. Biotin-EEVD and biotin-pEEVD were solubilized in 20 mM HEPES, 150 mM NaCl, pH 7.0. Affinity measurements were made using the advanced kinetic protocol within the BLItz Pro system software. Biosensors were hydrated for ten minutes in assay buffer comprising 20 mM HEPES, 150 mM NaCl, 5 mM β-mercaptoethanol, pH 7.2. For each affinity measurement, a new, hydrated biosensor was placed on the BLItz tip, and the “Initial Baseline” step was completed by incubation for 30 seconds in 500 μl assay buffer in an opaque black microcentrifuge tube (Argos Technologies). Peptides were loaded during the “Loading Step” by incubating the tip in 4 μl of either peptide for 60 seconds. The “Baseline step” was then conducted by incubation for 30 seconds in 500 μl assay buffer in an opaque black microcentrifuge tube. The “Association step” was performed by incubating the tip in 4 μl of the appropriate TPR protein construct, at protein concentrations of 1 to 25 μM, in assay buffer in an opaque black microcentrifuge tube for 120 seconds. […] Affinities (Kd) were calculated by the BLItz Pro software as Kd=koff/kon, where koff and kon were determined by individual fits to the “dissociation step” and “association step,” respectively, for each run.

HSC70 = assay: Cell-free ubiquitination of HSC70 by CHIP; assay type: biochemical, human; conditions: 100 nM Uba1, 1 μM UBE2D2, 200 nM Hsc70, 100 μM Ub, 1 μM CHIP, pH 8.0, 15 min, room temperature; three experiments; p = 0.0774; Fig. 1K
Procedure: Ubiquitination assays were conducted using recombinant human HSC70, fluorescently tagged on its N-terminus. All assay components except ubiquitin were premixed on ice in a BSA-containing buffer (20 mM HEPES, pH 8.0; 200 mM NaCl; 0.5 mg/mL BSA). Reactions were initiated by adding ubiquitin and were allowed to proceed at room temperature unless specified otherwise. The reactions contained a final concentration of 100 nM Uba1, 1 μM UBE2D2, 200 nM Hsc70, 100 μM Ub, 5 mM MgCl2-ATP, and 1 μM CHIP. The reactions proceeded for 15 minutes before being quenched with SDS loading buffer. The quenched samples were separated by molecular weight via SDS-PAGE in non-reducing conditions using GenScript SurePAGE 4–12% gels. The CHIP-dependent ubiquitination of Hsc70 was visualized and quantified through fluorescent scanning on an Amersham Typhoon 5.

fold change (CHIP-TPR (21–154) [1]): weaker
Molecule: HSP70 C-terminal tail (from UniProt P0DMV8) biotin-pEEVD (pT636) peptide

fold change (CHIP): weaker
Molecule: HSP70 C-terminal tail (from UniProt P0DMV8) pEEVD (pT636) peptide

Kd [2]: 66 µM
Kd [3]: 28 µM
Kd [4]: 6.5 µM and 7 µM
Kd [5]: 9.2 µM
binding result [6]: binds
binding result [7]: binds
binding result (CHIP-TPR (21–154) [8]): binds
B1: N-FITC-Ahx-GSGPTIEEVD (peptide)
peptide: {FITC-Ahx}-GSGPTIEEVD
notes: C-terminal tail of HSP70; tracer of the fluorescence polarisation assay; also called HSP70 peptide tracer; source: synthetic peptide (Lifetein or Genscript)

B2: CHIP-K30A: substitution known to disrupt the ability of CHIP's TPR domain to bind EEVD motifs (protein)
chain: MKGKEEKEGGARLGAGGGSPEKSPSAQELAEQGNRLFVGRKYPEAAACYGRAITRNPLVAVYYTNRALCYLKMQQHEQALADCRRALELDGQSVKAHFFLGQCQLEMESYDEAIANLQRAYSLAKEQRLNFGDDIPSALRIAKKKRWNSIEERRIHQESELHSYLSRLIAAERERELEECQRNHEGDEDDSHVRAQQACIEAKHDKYMADMDELFSQVDEKRKKRDIPDYLCGKISFELMREPCITPSGITYDRKDIEEHLQRVGHFDPVTRSPLTQEQLIPNLAMKEVIDAFISENGWVEDY
luminescence of CHIP variant with HSP70-T636A/D (LgBiT-HSP70 T636A/D [9]): robust decrease in luminescence
luminescence of CHIP variant with HSP70 constructs (LgBiT-HSP70 T636A/D [10]): limited luminescence detected
co-precipitation of HSP70 by CHIP variant (HSP70): failed to precipitate appreciable amounts of HSP70 construct above background levels

effect on binding affinity towards phosphorylated EEVD tail (CHIP-G132N): rescued the binding affinity
B3: CHIP-G132N: engineered CHIP variant to restore binding affinity to phosphorylated HSP70 (protein)
chain: MKGKEEKEGGARLGAGGGSPEKSPSAQELKEQGNRLFVGRKYPEAAACYGRAITRNPLVAVYYTNRALCYLKMQQHEQALADCRRALELDGQSVKAHFFLGQCQLEMESYDEAIANLQRAYSLAKEQRLNFNDDIPSALRIAKKKRWNSIEERRIHQESELHSYLSRLIAAERERELEECQRNHEGDEDDSHVRAQQACIEAKHDKYMADMDELFSQVDEKRKKRDIPDYLCGKISFELMREPCITPSGITYDRKDIEEHLQRVGHFDPVTRSPLTQEQLIPNLAMKEVIDAFISENGWVEDY
luminescence of CHIP variant with HSP70-T636A/D (LgBiT-HSP70 T636A/D [9]): lower luminescence
co-precipitation of HSP70 by CHIP variant (HSP70): did not override the effect of the HSP70-T636D phosphomimetic
ubiquitination of HSC70 (HSC70): not different; also recorded: trend towards decreased ligase activity
